Source: article PMC7613211 (Nature chemical biology, 2022)

How the values were obtained:
[1] = target: BT1918^3S,6S-GlcNAc (Bacteroides thetaiotaomicron) (UniProt Q8A6G6); experiment: SEC-MALS
[2] = target: T1, BT4631^6S-Gal/GalNAc (Bacteroides thetaiotaomicron, UniProt Q89YV0); experiment: desulfation assay; type: biochemical
T1 sequence (Q89YV0 26-520): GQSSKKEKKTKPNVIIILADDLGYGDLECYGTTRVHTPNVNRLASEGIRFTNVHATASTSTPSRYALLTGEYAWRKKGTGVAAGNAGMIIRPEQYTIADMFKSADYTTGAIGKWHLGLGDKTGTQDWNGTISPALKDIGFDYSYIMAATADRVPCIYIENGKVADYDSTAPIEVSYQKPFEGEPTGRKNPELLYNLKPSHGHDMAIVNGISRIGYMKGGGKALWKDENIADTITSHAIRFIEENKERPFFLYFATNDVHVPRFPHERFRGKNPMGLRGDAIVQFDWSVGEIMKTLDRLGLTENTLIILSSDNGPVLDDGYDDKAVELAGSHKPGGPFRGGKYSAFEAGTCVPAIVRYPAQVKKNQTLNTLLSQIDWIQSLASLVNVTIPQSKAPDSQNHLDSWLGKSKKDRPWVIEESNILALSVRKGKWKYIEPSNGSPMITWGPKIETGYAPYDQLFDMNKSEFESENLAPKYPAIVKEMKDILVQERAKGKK

[3] = target: BT3796^4S-Gal/GalNAc (Bacteroides thetaiotaomicron) (UniProt Q8A171); experiment: SEC-MALS
[4] = target: the molecule itself; experiment: SEC-MALS

Molecule: BT1918^3S,6S-GlcNAc (from UniProt Q8A6G6 1-500) (enzyme)
- stoichiometry N [1]: 2

Molecule: CC(=O)N[C@H]1C(O)O[C@H](COS(=O)(=O)O)[C@H](O)[C@@H]1O (stereo partly drawn) [6S-GalNAc]
- desulfation assay (kcat/KM only, supplement) [2]: BT4631^6S-Gal/GalNAc cleave both 6S-GalNAc and 6S-Gal equally well

Molecule: O=S(=O)(O)OC[C@H]1OC(O)[C@H](O)[C@@H](O)[C@H]1O (stereo partly drawn) [6S-Gal]
- desulfation assay (kcat/KM only, supplement) [2]: BT4631^6S-Gal/GalNAc cleave both 6S-GalNAc and 6S-Gal equally well

Molecule: BT3796^4S-Gal/GalNAc (from UniProt Q8A171 1-518) (enzyme)
- stoichiometry N [3]: 2

B1: BT3057^4S-Gal/GalNAc (enzyme, Bacteroides thetaiotaomicron, UniProt Q8A397 1-508, looked up)
chain: QERPNIIVFLVDDMGLMDTSVPFIADESGQPVRHPLNDWYHTPNMERLAKQGICFSTFYAQSVSSPSRASIMTGQNATRHGVTNWINAESNNRNPFGPPQWNWKGLRKDMPTMPRVLQQAGYKTIHVGKAHFGCMGSEGENPLNIGFDVNIAGSGIGHPGSYYGEWGYGHIKGQKIRAVPDLEKYHGTDTFLSEALTIEANREITKAVEEKRPFYLNMAHYAVHSPFQADKRFLSRYTDPDKNEQARAFATLIEGMDKSLGDIMDQLEKLGIAENTLILFLGDNGGDAPLGDERGYGSSAPLRGKKGTEFEGGMRVPFIAAWAKPEKKSKVQKNLPIEVGSMQTQLGTIMDIYPTVLSVAGCEVPQNYVIDGFDLKKQLSGKVDKKRPESFLMHFPHAHRGSYFTTYRMGDWKLIYYYLPETPKQPKALLYNLKDDPEERNELSAAHPDQCREMIREMSARLEKEGALYPVDKQGNELKPFVYF
- stoichiometry N [4]: 2
